Laboratory results taken from PMC10117100, “The E2F4/p130 Repressor Complex Cooperates with Oncogenic ΔNp73α To Inhibit Gene Expression in Human Papillomavirus 38 E6/E7-Transformed Keratinocytes and in Cancer Cells” (mSphere, 2023).

Legend:
Experiment in all cases: split reporter (BiFC, NanoBiT); Gaussia princeps protein complementation assay (GPCA): Gluc1 and Gluc2 N-terminal fusions co-transfected in HEK293T, luminescence of lysates after 48 h as normalized luminescence ratio (NLR); pairs count as interacting if NLR is above 5
Details in all cases: partners not purified
Gluc1-TAp73α = target: T1, Gluc1-TAp73α (human, UniProt O15350 1-636)
T1 construct: also called full-length TAp73α; source: HEK293T, transfected (pSPICA vector), in cells; not shown: Gluc1 (fragment of Gaussia princeps luciferase), N-terminal, kept
T1 sequence (looked up): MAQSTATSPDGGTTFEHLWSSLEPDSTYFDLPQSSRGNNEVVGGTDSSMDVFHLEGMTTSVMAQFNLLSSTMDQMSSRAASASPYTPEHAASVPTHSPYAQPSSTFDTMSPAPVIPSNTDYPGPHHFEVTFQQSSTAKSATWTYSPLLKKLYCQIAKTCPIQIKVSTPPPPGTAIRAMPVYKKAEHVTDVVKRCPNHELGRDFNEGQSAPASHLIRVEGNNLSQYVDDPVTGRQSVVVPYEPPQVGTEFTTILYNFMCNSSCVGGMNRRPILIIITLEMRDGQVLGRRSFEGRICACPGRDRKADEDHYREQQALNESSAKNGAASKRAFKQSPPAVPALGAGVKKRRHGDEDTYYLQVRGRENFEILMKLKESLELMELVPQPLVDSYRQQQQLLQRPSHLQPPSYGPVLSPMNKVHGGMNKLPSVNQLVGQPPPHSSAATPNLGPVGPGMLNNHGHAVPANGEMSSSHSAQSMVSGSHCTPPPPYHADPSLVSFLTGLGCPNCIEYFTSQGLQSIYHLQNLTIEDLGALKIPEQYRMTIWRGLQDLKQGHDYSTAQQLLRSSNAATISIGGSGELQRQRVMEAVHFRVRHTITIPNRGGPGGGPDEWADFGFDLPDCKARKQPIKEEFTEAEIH

Gluc1-ΔNp73α FL = target: T2, Gluc1-ΔNp73α FL (human, UniProt O15350-8 1-587)
T2 construct: ΔNp73α isoform of p73, whole ORF, 587 residues by the printed numbering; numbers count on: ΔNp73α; source: HEK293T, transfected (pSPICA vector), in cells; not shown: Gluc1 (fragment of Gaussia princeps luciferase), N-terminal, kept
T2 sequence (looked up): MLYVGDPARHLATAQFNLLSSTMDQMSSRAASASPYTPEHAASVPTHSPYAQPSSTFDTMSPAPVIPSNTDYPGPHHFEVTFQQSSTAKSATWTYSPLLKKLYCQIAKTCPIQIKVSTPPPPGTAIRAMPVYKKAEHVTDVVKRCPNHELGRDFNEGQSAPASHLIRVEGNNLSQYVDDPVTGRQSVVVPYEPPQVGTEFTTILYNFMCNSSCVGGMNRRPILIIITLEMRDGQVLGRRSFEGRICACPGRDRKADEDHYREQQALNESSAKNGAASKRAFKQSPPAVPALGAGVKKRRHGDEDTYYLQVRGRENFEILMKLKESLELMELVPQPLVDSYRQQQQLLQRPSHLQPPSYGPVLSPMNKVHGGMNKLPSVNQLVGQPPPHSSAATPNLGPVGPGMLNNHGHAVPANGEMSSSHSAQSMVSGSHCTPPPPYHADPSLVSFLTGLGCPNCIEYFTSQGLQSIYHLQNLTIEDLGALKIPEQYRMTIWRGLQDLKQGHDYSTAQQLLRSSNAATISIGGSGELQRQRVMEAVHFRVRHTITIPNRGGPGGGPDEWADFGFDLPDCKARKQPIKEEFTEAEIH

Gluc1-E2F4 = target: T3, Gluc1-E2F4 (human, UniProt Q16254 1-413)
T3 construct: human E2F4, whole ORF (bought from Addgene); source: HEK293T, transfected (pSPICA vector), in cells; not shown: Gluc1 (fragment of Gaussia princeps luciferase), N-terminal, kept
T3 sequence (Q16254 whole entry, the tested form may be a part): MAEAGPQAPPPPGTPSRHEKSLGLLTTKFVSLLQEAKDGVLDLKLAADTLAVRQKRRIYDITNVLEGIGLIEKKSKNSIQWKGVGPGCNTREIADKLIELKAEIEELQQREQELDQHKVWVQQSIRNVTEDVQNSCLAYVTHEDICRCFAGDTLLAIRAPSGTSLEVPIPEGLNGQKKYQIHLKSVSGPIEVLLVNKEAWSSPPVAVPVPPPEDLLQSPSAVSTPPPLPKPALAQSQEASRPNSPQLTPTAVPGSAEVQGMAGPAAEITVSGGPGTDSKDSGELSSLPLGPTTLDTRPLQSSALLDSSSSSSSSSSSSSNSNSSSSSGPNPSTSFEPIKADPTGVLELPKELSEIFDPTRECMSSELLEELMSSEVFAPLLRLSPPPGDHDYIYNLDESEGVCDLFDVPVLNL

B1: Gluc2-E2F4 FL (natural protein)
chain: not shown
notes: human E2F4, whole ORF (bought from Addgene), 413 residues by the printed numbering; source: HEK293T, transfected (pSPICA vector), in cells; not shown: Gluc2 (fragment of Gaussia princeps luciferase), N-terminal, kept
Gluc1-TAp73α
  binding response relative to that obtained with ΔNp73α: ~50%
Gluc1-ΔNp73α FL
  normalized luminescence ratio (NLR): > 20

B2: Gluc2-DP1 (natural protein, human, UniProt Q14186 1-410, looked up)
chain: MAKDAGLIEANGELKVFIDQNLSPGKGVVSLVAVHPSTVNPLGKQLLPKTFGQSNVNIAQQVVIGTPQRPAASNTLVVGSPHTPSTHFASQNQPSDSSPWSAGKRNRKGEKNGKGLRHFSMKVCEKVQRKGTTSYNEVADELVAEFSAADNHILPNESAYDQKNIRRRVYDALNVLMAMNIISKEKKEIKWIGLPTNSAQECQNLEVERQRRLERIKQKQSQLQELILQQIAFKNLVQRNRHAEQQASRPPPPNSVIHLPFIIVNTSKKTVIDCSISNDKFEYLFNFDNTFEIHDDIEVLKRMGMACGLESGSCSAEDLKMARSLVPKALEPYVTEMAQGTVGGVFITTAGSTSNGTRFSASDLTNGADGMLATSSNGSQYSGSRVETPVSYVGEDDEEDDDFNENDEDD
notes: human DP1, whole ORF (bought from Addgene); source: HEK293T, transfected (pSPICA vector), in cells; not shown: Gluc2 (fragment of Gaussia princeps luciferase), N-terminal, kept
Gluc1-E2F4
  normalized luminescence ratio (NLR): ~500
